# According to the supplement of paper PMC12042874:
# ± gives the uncertainty stated by the source.
# Test: amyloid nucleation score (Sup35N fusion, yeast selection) (log enrichment); library NNK2; higher = more nucleation; inactive = no reads after selection
# Outline: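 The nucleation score is a DiMSum log enrichment of output over input reads, centred on the mode score of non-aggregating sequences. Sequences under 100 input reads were excluded, and reads came from Illumina sequencing of plasmid inserts. Psi-negative yeast expressing Sup35N fused to peptides of 20 random codons were induced with 100 μM copper sulfate for 24 hours and grown 7 days at 30°C on medium lacking adenine and uracil. Random libraries had three technical output replicates.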
row,Substance,amyloid nucleation score
1,SRFPGCSVSTGRHRTKVSSR,0.177 ± 0.43
2,RHTSNTIIDELFLDSMGWHN,9.016 ± 0.05
3,MILNQMYDKFYSRLSSITSR,1.31 ± 0.66
4,MDLLPNSGYGLRSDLRVLAE,3.5 ± 0.097
5,CRIQPDFRFMCLRNCGLESR,-0.855 ± 1
6,MEDHF,3.69 ± 0.11
7,KYTGMKYRPTVCLGVEVQLK,3.83 ± 0.062
8,YGHFWDFGVPIASSISYKKG,-0.029 ± 0.79
9,NSINRMVVQLVG,3.9 ± 0.087
10,AGYIVIALSRCCTDSRPNRV,inactive
11,VINLRLLLIVLDGDIDYWCV,inactive
12,AFLRFMKRRQLNLLKYAFCC,4.01 ± 0.084
13,LYFSSTYCLLVGKTDQIDCH,inactive
14,SISLEIHTAGTGKSRLPFYS,5.67 ± 0.073
15,LAFYSFIRYTRLSIEMVAIS,-0.741 ± 0.31
16,LAPCISNMSRLL,-1.25 ± 0.36
17,RSEDGRGGSKGQIIRVVMNW,4.76 ± 0.062
18,FLSSGFCRTDFVRSIILYGP,-1.43 ± 0.55
19,DDFRGIAGIWWRG,0.785 ± 0.51
20,GLDPRCNNTPVTLYVLSPWV,-0.588 ± 1.1
21,PCNTVLASPRYHVGGIYNLK,-0.727 ± 0.78
22,HSLVCDN,-0.122 ± 0.39

row,Substance,amyloid nucleation score
1,AKVACKDGLHACESESGFIW,1.54 ± 0.3
2,DSGLVLNAGIIGSV,-1.11 ± 0.49
3,QRMTNMSF,-1.27 ± 1
4,YSTTDHKWSRNLGIIMVVMW,0.185 ± 0.48
5,FKDSDVEEWLNVKIIYWGVC,-0.604 ± 0.41
6,NERYP,-0.865 ± 0.33
7,EMNFKALLKGVNGFVWDGVF,1.43 ± 0.21
8,IFWYRCNINSGCEQVVYWGN,5.311 ± 0.033
9,KVYINHGFGNFEVCSRWVFE,-0.055 ± 1.1
10,SLQYRTSDSQWYVVYCSQEP,0.484 ± 0.19
11,LKNYSGLMPVI,3.41 ± 0.068
12,SSHLGTFLSDRGKSWVSGND,-0.569 ± 0.55
13,GEPLNGSAGLVGH,0.234 ± 0.34
14,YCHLVV,2.04 ± 0.087
15,SVCVWAYACRDRTPLLGRFC,0.508 ± 0.56
16,SFKICKLMNSNRFFVGICCT,0.057 ± 1.1
17,INFTYMGVMIFLSLLRQTWG,-0.311 ± 0.56
18,VRFWSLMCYACFSQSGSRVR,3.91 ± 0.084
19,IFPFLDFRRFFLVYHVGPIS,2.4 ± 0.24
20,WMSMKFCFIFLPFYKSSVCM,1.91 ± 0.18
21,LWFKCGHSIQGLVRVTESGS,-0.15 ± 0.27
22,CHHTAYPMANFWQWLKGAMS,0.069 ± 0.35

row,Substance,amyloid nucleation score
1,LGHHVQYLRFVWLWQND,1.17 ± 0.22
2,ALMEKSTSNLLFCHLDCASD,3.24 ± 0.071
3,IWQMLVMMKAWKMCPTLVRY,1.09 ± 0.41
4,TGAYI,-1.94 ± 0.75
5,VGRTVMKWACIVE,4.878 ± 0.034
6,IPYLNFDLYWLPVI,-0.792 ± 0.48
7,AFTACRYMVSPFFSLMFSTS,0.265 ± 1.1
8,VLVIVVTLRKWMTLNRRGVP,0.155 ± 0.53
9,KFLLGSVGTLQSNPTLFHLR,0.095 ± 0.33
10,FLMGVPEIFFPLVVSDYMYV,inactive
11,CRKRGH,1.33 ± 0.49
12,ALERWS,0.024 ± 0.74
13,FYMPLLMYVVAVRPMSGNLV,-0.22 ± 1
14,LTVLFLYLSLRCHSYNPAHA,-0.841 ± 1.1
15,LYHDEALVWNLRDVSRIYRL,3.59 ± 0.1
16,MYTLYS,inactive
17,FKDRYRTGFSDVRNQVAHSV,inactive
18,RNGVLAIGLY,-0.759 ± 0.63
19,GIPVMPTDSRGTPGVMVFEY,-1.25 ± 1
20,VTNVCGWRTEGWYDPGSAKT,1.13 ± 0.33
21,LYPCYYCRAEKVHVRLDFTR,-0.517 ± 0.23
22,VYEVNGLSAGRMMSICNRRN,-0.467 ± 0.44

row,Substance,amyloid nucleation score
1,FAYLPSTVVGVSHSTLGPLI,0.221 ± 0.43
2,KSPNHSDRVQWMKYTFWYTL,-0.003 ± 1.1
3,CFVIGLSMNLGHAGHKVWMT,4.75 ± 0.086
4,VSCTWFGS,0.797 ± 0.28
5,YRYCSCMNLAWERFGNPEGQ,-0.399 ± 0.46
6,IYFYCGRCVSVFVHSFGMGL,4.21 ± 0.05
7,GEMYV,-0.31 ± 1
8,NLSYSVVMTGISGAMTTCCF,3.64 ± 0.11
9,LGGVSSHSELMPRVKVNWLT,inactive
10,IFGSLLNMIYMV,2.5 ± 0.21
11,MRLVSSDDFCV,0.097 ± 0.8
12,IYINYHREA,3.54 ± 0.052
13,ILLGYIISR,-0.636 ± 0.79
14,GSQYRVWISS,-0.214 ± 0.55
15,LVRNPAQMSFRPIVHSVCYL,0.724 ± 0.16
16,EEMYRSIARNVVVLNRYCES,-0.468 ± 0.26
17,LVMVCMVSFENHYMLGTEVL,2.71 ± 0.14
18,GYTVCRLGCRFVMSLWNILV,-0.221 ± 1.1
19,RVTFNFRGMYKLIIMGGVPP,6.49 ± 0.085
20,DDVSIL,0.14 ± 1
